Experimental data from publication doi:10.1101/2020.07.12.199869.

Target: low-density lipoprotein receptor-related protein 1 (mouse (endogenous in bEnd3))
Assay: proximity ligation

low-density lipoprotein receptor-related protein 1 (mouse (endogenous in bEnd3)), sequence (Q91ZX7 20-4545): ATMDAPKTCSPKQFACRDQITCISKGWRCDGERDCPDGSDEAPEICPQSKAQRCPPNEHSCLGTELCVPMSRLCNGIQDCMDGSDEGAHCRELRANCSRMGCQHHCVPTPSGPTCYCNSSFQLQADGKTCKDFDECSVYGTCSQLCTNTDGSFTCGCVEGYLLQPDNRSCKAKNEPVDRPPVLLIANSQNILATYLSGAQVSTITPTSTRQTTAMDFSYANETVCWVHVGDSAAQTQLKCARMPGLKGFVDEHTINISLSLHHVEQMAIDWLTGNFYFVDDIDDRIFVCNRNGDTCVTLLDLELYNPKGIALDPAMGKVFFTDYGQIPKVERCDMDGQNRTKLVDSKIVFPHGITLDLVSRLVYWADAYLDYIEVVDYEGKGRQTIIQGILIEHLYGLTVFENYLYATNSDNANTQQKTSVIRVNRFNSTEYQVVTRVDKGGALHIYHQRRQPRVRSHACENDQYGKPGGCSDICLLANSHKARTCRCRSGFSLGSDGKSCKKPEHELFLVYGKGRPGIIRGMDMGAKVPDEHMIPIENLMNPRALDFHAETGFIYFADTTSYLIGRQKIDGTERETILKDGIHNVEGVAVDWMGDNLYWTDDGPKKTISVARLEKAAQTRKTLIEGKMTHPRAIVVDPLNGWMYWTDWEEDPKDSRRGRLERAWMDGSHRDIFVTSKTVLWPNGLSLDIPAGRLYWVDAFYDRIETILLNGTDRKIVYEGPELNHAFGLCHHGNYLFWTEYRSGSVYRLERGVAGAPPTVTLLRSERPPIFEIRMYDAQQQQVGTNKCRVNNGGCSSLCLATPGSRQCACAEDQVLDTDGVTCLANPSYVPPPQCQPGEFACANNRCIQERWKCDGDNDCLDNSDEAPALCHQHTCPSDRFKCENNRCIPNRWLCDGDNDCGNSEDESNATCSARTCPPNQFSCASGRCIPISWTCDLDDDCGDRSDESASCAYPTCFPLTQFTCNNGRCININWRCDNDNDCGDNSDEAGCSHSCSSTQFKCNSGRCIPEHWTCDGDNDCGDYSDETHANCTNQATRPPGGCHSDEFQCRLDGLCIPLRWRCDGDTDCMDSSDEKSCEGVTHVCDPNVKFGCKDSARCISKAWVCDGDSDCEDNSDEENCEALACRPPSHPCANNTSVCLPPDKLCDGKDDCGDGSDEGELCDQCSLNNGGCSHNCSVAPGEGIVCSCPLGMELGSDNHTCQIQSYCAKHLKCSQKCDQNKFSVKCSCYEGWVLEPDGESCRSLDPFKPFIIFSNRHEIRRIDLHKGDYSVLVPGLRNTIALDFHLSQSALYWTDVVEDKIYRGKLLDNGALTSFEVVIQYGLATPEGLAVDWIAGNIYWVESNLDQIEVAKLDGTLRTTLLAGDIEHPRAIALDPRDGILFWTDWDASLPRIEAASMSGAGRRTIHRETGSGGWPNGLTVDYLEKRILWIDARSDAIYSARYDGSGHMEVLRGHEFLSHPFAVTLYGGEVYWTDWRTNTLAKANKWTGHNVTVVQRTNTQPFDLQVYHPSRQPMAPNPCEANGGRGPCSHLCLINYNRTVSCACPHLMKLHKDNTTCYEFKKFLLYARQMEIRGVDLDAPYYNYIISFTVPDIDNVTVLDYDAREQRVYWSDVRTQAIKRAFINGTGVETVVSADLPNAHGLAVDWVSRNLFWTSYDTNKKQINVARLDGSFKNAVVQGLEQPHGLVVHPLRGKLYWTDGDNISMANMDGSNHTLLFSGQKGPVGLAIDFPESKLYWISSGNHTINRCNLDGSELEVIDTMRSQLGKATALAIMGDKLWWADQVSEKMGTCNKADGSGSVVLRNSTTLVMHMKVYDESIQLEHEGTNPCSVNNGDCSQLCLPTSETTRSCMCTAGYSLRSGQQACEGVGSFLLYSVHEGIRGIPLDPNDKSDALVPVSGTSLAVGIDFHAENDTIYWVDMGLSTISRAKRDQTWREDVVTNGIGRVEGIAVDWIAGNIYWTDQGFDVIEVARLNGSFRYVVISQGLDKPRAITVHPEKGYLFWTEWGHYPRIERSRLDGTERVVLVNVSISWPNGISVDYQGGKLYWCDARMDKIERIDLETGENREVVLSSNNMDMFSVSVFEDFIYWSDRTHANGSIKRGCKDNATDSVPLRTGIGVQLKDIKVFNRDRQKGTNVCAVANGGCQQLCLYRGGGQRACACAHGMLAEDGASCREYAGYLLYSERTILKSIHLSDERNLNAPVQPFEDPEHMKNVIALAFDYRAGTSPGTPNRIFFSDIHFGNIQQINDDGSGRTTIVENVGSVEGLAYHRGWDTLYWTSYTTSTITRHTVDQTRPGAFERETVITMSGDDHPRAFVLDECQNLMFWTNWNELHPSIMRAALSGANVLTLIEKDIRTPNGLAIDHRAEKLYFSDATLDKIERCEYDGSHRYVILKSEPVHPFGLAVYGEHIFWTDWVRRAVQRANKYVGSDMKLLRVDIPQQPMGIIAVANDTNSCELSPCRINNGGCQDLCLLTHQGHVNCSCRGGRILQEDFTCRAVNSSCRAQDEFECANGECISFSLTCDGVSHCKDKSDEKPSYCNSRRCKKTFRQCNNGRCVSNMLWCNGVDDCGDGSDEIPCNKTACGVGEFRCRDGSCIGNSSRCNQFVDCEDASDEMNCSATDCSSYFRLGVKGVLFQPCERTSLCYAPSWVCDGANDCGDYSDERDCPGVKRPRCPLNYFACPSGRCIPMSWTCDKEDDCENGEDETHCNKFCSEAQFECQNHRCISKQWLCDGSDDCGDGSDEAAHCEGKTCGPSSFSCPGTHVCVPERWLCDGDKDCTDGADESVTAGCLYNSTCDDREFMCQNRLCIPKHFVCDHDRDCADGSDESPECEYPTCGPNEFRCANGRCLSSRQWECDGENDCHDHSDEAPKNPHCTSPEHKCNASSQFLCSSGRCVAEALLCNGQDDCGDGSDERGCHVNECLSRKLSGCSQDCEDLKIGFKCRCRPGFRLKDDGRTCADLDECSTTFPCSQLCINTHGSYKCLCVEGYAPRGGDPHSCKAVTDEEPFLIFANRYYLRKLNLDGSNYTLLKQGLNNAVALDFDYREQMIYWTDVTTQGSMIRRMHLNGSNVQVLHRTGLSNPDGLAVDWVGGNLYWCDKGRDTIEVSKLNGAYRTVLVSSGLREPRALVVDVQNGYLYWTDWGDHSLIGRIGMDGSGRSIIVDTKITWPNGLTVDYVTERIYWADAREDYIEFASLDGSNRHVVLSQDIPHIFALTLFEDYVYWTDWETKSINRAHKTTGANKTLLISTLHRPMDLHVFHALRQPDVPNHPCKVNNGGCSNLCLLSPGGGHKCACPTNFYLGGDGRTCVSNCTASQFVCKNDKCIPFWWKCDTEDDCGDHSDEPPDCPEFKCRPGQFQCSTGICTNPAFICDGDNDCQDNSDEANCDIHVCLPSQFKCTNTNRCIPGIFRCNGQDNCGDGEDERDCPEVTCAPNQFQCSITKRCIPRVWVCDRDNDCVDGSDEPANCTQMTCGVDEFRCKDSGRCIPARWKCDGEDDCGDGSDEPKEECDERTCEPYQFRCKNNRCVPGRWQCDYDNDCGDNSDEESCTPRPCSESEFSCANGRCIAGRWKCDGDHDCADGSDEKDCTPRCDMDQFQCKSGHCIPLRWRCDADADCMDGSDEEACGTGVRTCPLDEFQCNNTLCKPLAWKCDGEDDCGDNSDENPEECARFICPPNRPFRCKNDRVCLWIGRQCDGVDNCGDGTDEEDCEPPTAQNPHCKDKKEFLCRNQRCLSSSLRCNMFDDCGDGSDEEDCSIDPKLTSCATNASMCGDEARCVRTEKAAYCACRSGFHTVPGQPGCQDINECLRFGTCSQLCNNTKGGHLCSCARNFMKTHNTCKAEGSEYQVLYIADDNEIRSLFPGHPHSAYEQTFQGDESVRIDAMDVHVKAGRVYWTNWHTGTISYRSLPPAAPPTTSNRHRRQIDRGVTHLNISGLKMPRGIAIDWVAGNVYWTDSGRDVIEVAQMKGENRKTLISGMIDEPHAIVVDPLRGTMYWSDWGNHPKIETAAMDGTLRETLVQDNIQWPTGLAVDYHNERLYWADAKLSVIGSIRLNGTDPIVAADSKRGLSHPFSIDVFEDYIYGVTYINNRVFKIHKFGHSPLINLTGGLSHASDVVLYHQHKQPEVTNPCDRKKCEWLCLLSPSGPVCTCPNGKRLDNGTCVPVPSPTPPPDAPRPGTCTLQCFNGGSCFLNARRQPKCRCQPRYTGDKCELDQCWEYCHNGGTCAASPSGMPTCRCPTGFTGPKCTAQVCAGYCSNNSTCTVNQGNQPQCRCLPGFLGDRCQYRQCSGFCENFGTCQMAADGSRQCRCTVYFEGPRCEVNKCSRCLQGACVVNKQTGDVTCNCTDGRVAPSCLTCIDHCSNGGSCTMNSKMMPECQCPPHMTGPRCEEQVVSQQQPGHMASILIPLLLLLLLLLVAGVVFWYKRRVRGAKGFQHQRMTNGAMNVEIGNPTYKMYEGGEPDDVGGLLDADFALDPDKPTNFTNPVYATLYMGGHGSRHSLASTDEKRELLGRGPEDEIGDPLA

syndapin-2 (from UniProt Q9WVE8 1-486) (natural protein)
PLA dots per cell (dots per cell): 250

B1: apolipoprotein E (ligand)
chain: EGEPEVTDQLEWQSNQPWEQALNRFWDYLRWVQTLSDQVQEELQSSQVTQELTALMEDTMTEVKAYKKELEEQLGPVAEETRARLGKEVQAAQARLGADMEDLRNRLGQYRNEVHTMLGQSTEEIRARLSTHLRKMRKRLMRDAEDLQKRLAVYKAGAREGAERGVSAIRERLGPLVEQGRQRTANLGAGAAQPLRDRAQAFGDRIRGRLEEVGNQARDRLEEVREHMEEVRSKMEEQTQQIRLQAEIFQARLKGWFEPIVEDMHRQWANLMEKIQASVATNPIITPVAQENQ
PLA dots per cell (dots per cell): 80
